What was measured:
human OX40 [1] = molecular target: T1, human OX40 (human, UniProt P43489 29-277); experiment: Flow cytometry on human CD4+ T cells cultured with CHO-OKT3-CD32A cells; bound OX40.21 detected with APC anti-human Fc. Total surface OX40 changes along the same titration
T1 construct: also called TNFRSF4; CD134
T1 sequence: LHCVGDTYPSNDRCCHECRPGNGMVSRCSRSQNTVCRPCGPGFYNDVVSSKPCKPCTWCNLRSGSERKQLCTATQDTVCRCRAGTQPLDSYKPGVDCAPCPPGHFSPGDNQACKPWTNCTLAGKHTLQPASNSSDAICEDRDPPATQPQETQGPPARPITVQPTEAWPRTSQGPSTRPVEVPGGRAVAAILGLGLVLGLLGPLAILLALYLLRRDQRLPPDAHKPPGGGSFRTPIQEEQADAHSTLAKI
Description: Briefly, total T cells were purified from human whole blood using Ficoll gradient centrifugation. CD4+ T cells were isolated from PBMCs using the Miltenyi CD4+ isolation kit. Isolated T cells were cultured in the presence of irradiated CHO-OKT3-CD32A (artificial antigen presenting cells) and in the presence of serial dilutions of OX40.21 or isotype control. Receptor occupancy was determined as the ratio of bound OX40 antibody to total surface OX40 using flow cytometry. Bound antibody was assessed by adding fluorescent conjugated anti-human Fc after washing the T cells. Total OX40 was determined by adding a saturating amount of OX40 antibody to the T cells. Following incubation, cells were washed and stained by adding fluorescent conjugated anti-human FC.

human OX40 [2] = molecular target: T1, human OX40; experiment: Flow cytometry receptor occupancy on human CD4+ T cells cultured with CHO-OKT3-CD32A cells
human OX40 [3] = molecular target: T1, human OX40; experiment: Emax PK-PD model: trough serum concentration (Cmin1) against blood receptor occupancy on CD4+ T cells at C2D1, 16 cancer patients, flow cytometry; in vivo blood receptor occupancy vs trough serum concentration (Cmin1), Emax PK-PD model; not an in vitro titration
Source text: (§1) This Example describes a PK-PD model for predicting receptor occupancy in human patients. The drug concentration-time profile was described by a linear two-compartment PK model using population PK analysis. […] The individual drug exposure (Cmin1: trough concentration after first dose) in the alternative dose schedule was predicted based on the PPK model, which was used in subsequent PK-PD model development.
(§2) wherein drug concentration is Cmin1, the trough concentration after first dose, ROₘₐₓ is the maximum percentage of blood RO and EC₅₀ is the drug concentration corresponding to 50% of ROₘₐₓ. From this analysis, the drug EC₅₀ was estimated to be 0.094 μg/mL (FIG. 8B). The trial […] was conducted to predict blood RO at alternative dosing schedules by using the established PK-PD relationship (Emax model), as well as taking into account inter-subject variability of PK and PD (FIG. 9).

mouse OX40 = molecular target: T2, mouse OX40 (mouse, UniProt P47741 20-272); experiment: flow cytometry, binding to activated mouse T cells
T2 construct: whole, on cells; also called murine OX40
T2 sequence (looked up): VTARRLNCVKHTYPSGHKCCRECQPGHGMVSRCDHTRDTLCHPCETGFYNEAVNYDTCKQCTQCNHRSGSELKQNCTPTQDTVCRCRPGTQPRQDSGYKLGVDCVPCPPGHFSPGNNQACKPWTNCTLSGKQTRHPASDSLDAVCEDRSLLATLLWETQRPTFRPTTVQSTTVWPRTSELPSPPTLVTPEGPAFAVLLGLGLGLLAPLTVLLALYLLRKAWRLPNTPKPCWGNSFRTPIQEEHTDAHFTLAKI

human OX40 [4] = molecular target: T1, human OX40; experiment: Emax model (RO = Emax x Cmin1 / (EC50 + Cmin1)) of the trough concentration after the first dose against peripheral blood RO on CD4+ T cells at C2D1 in patients. The text prints the value rounded, 0.094 ug/mL. No Emax value is printed; the median curve runs from about 92 % at 20 mg to about 99 % at 320 mg
Source text: as §1, §2

cynomolgus OX40 = molecular target: T3, cynomolgus OX40 (cynomolgus, UniProt P43489 29-277 (human entry)); experiment: flow cytometry, binding to activated cynomolgus T cells
T3 chain: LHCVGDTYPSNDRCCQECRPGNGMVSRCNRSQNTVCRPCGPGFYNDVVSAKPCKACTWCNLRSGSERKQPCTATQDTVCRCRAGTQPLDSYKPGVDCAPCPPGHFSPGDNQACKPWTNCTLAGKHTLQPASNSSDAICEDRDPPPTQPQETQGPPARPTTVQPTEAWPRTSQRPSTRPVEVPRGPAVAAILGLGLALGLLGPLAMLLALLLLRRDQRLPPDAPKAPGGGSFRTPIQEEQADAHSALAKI

human OX40 [5] = molecular target: T1, human OX40; experiment: cell-based or functional assay
human OX40 [6] = molecular target: T1, human OX40; experiment: flow cytometry, binding to activated human T cells
human OX40 [7] = molecular target: T1, human OX40; experiment: Flow cytometry receptor occupancy on human CD4+ T cells cultured with CHO-OKT3-CD32A cells; remark: listed apart in the source

B1: OX40.21 (antibody, human IgG1, kappa, V domains shown)
VH: EVQLVQSGGGLVQPGGSLRLSCAGSGFTFSSYAMYWVRQAPGKGLEWVSAIDTDAGTFYADSVRGRFTISRDNAKNSLYLQMNSLRAEDTAVYFCARLGEGYFFDYWGQGTLVTVSS
VL: EIVLTQSPATLSLSPGERATLSCRASQSVSSYLAWYQQKPGQAPRLLIYDASNRATGIPARFSGSGSGTDFTLTISSLEPEDFAVYYCQQRSNWPPTFGGGTKVEIKR
notes: also called OX40.21 (human)
Human OX40 [1]
  EC50 (read off the curve): ~0.1 nM
Human OX40 [2]
  EC50 (read off the curve): ~0.3 nM
Human OX40 [3]
  EC50: 0.094 mg/L
Mouse OX40
  binding result: no binding
Human OX40 [4]
  EC50: 0.0937 mg/L
Cynomolgus OX40
  EC50: 0.068 nM
Human OX40 [5]
  EC50 of internalization (mean circle spot total intensity) in CD3/CD28-activated Tregs. The table prints no unit; the axis is 'Log nM Ab': 0.0779 nM
Human OX40 [6]
  EC50: 0.072 nM
Human OX40 [7]
  EC50 (read off the curve): ~0.3 nM

— patent US20200369777A1 (Bristol-Myers Squibb, published 2020)
